Source: patent publication CN115124615A (SICHUAN YIAI TECH CO LTD, dated 2022)
Residue numbers refer to the chain shown, from its start.

B1: 纳米抗体N1 (VHH)
VHH: QVQLVESGGGLVQPGGSLRLSCTASGSGFSNNNMAWYRQAPGKAREWVAAVSSSGNTNYAASAKGRFTISRDNAKNTVYLQMSSLKPEDTAVYYCYAVAPEGGDSWGQGTQVTVSS
notes: also called R1
B2: 纳米抗体N10 (VHH)
VHH: B1 VHH with Q13E, P14A, T23A, S27I, G28I, N31I, A44P, A63V, V78L
notes: also called R10
B3: 纳米抗体N3 (VHH)
VHH: QVQLVESGGGLVQAGGSLRLSCRASGSVFTMGWHRQAPGNGREFVASITRDGNANYKGSVKDRFTISRDNGKNTLYLQMNSLKPEDTAVYYCIDYNTSTWGQGTQVTVSS
notes: also called R3
B4: 纳米抗体N22 (VHH)
VHH: QVQLVESGGGLVQAGGSLRLSCRASGTVFNMGWHRQAPGQQREFVASISHDGRTNYAGSVKGRFTISRDNTKNTLYLQMNSLKPEDTAVYYCIDYHTSLWGQGTQVTVSS
notes: also called R22
B5: 纳米抗体N5 (VHH)
VHH: QVQLVESGGGPVQAGGSLRLSCAAAGSALSIYRMGWYRQAPGKQRELVAFITTGGSTDHIDSVKGRFTISRDNAKNTVYLQMNSLKPEDTAVYYCNSDPPWVLGADWGQGTQVTVSS
notes: also called R5

These binders were tested against T1, SARS-CoV2病毒表面SPIKE蛋白的RBD结构域 (SARS-CoV-2, UniProt P0DTC2 319-541) (assay: SPR (Biacore)).
T1 construct: domain: RBD结构域
With B1 the Kd was 0.56 nM.
In the case of B2, the Kd is reported as 0.59 nM.
B3 gave a Kd of 1.4 nM.
B4 gave a Kd of 0.19 nM.
B5 gave a Kd of 5.3 nM.

Each binder was assayed against 新冠病毒刺突蛋白(S蛋白) (SARS-CoV-2, UniProt P0DTC2 14-1213) (assay: cell-based or functional assay).
In the case of B5, the “假病毒中和 IC50” value is reported as 0.023 µg/mL.
